Entries after “also recorded” stand apart in the source; their conditions may differ.
What follows are molecules tested against T1, PSMA on LNCaP cells (Homo sapiens, UniProt Q04609) (assay: Cell-based phage ELISA, recognition of cell surface PSMA). Conditions: PEGylated ligands on phage wrapped with K14-Cys.
T1 construct: specific recognition of PSMA on the surface of LNCaP cells; endogenous in cells; host or cells: LNCaP (also LNCaP CSS); glutaraldehyde-fixed on the plate
Method: The cell-based ELISA was performed as previously described by Watanabe et. al. with several modifications. See e.g., Watanabe, K.; et al., Clin. Biochem. 2001, 34, 291-295. Cells were detached with Trypsin-EDTA, resuspended in PBS, and then collected by centrifuging at 1200 rpm for 5 min. The cells were further washed with PBS and then concentrated as in the previous step. The concentration of the cells was adjusted to 4.5×10^6 cells/mL in PBS using a hemocytometer, and 100 μL was aliquoted to specific wells of a 96-well microtiter (Nunc Maxisorp). Next, 50 μL of 0.15% of glutaraldehyde in PBS was added to the wells at 4° C., and the solution was gently mixed by pipetting. The ELISA plate was then centrifuged at 1200 rpm for 10 min at 4° C., followed by overnight incubation at 4° C. The cell solution was gently removed, and the wells were blocked with 200 μL/well of blocking buffer containing 100 mM glycine, 1% gelatin and 0.1% w/v BSA (bovine serum albumin) in PBS. The plate was incubated overnight (˜20-22 h) at room temperature.
Separately, phage wrapped with PEG and PEGylated ligands were prepared. Phage (10 nM in 100 μL) and 1 μL of K14-alkyne (525 μM in water) were thoroughly mixed by pipetting ˜25 times. For phage wrapped with PEGylated ligands, phage were mixed with 0.75 μL of K14-Cys (525 μM in water). For mixed wrapping on phage surface, 0.5 μL of K14-alkyne was pre-mixed with 0.75 μL of K14-Cys, and then mixed with 100 μL of 10 nM phage. The solution was shaken at room temperature for 15 min on an orbital shaker. Next, 2 μL of PEGylated ligand (625 μM in water) was added to the appropriate wells. For the dual ligand combinations, the PEGylated ligands were pre-mixed in the desired ratio (2:1 for example), and then 2 μL of the mixture was added to the appropriate wells. The solutions were gently mixed by pipetting, and incubated overnight at 4° C.
Next, the click reaction was performed, as previously described, but with the following modifications.^1,2 Triethylammonium acetate was added to a final concentration of 50 mM, followed by the addition of 1.5 μL of 1 mM azide-functionalized PEG. The solutions were mixed by pipetting. Next, ascorbic acid was added to a final concentration of 1 mM and the solutions were mixed by gently pipetting. Next, copper sulfate was added to a final concentration of 1.5 mM, followed by pipetting to mix the solutions. Water was added to the other wells to maintain a consistent phage concentration. The plate was incubated at room temperature for 30 min.
The wells on the ELISA plate were then incubated with the phage samples. The blocking buffer was removed and the wells were gently washed two times with PBS. Next, the phage solution was added to the respective wells and incubated for 45 min. The phage solution was removed, and the wells were washed three times with 300 μL/well of wash buffer PT (0.05% TWEEN-20 in PBS), once with PBS, and then incubated with horseradish-peroxidase-conjugated anti-M13 antibody (100 μL/well, 1:5000 dilution in PBS) for 40 min. The wells were washed three times with PT and once with PBS. The plate was then developed by incubating with HRP substrate solution (100 μL/well; 1 mg/mL o-phenylenediamine dihydrochloride and 0.02% w/v H2O2) in citric acid buffer (50 mM citric acid, 50 mM Na2HPO4, pH 5.0). The HRP activity was measured spectrophotometrically at 450 nm using a microtiter plate reader (Bio-Tek). The absorbance at 630 nm was subtracted from the absorbance at 450 nm to eliminate background.

T1 sequence (Q04609 whole entry): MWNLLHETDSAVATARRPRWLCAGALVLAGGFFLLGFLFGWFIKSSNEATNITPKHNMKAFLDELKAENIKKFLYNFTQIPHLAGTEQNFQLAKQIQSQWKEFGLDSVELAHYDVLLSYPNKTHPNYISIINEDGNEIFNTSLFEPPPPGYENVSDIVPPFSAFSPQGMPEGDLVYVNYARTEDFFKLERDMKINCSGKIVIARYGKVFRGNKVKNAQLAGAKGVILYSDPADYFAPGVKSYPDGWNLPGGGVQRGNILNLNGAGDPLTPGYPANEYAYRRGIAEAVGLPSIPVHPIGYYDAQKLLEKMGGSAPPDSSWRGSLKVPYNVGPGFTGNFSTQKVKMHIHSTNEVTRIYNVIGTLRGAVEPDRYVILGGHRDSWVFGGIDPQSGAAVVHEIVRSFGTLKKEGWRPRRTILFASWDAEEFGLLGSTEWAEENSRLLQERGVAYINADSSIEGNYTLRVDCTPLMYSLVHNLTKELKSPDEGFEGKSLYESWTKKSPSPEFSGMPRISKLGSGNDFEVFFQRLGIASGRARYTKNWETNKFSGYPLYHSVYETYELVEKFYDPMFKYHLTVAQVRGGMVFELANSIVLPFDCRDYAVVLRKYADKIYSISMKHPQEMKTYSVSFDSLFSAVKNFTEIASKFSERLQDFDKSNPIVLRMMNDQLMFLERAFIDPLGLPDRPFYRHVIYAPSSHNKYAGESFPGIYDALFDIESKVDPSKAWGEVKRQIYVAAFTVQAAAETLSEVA

Molecule	relative binding affinity for cell surface PSMA on LNCaP cells
P100NSP-2: PEG100, non-specific attachment to ligand 2; bioconjugated to phage wrapped with K14-Cys (conjugate) peptide 1: SECVEVFQNSCDW peptide 2: KKKKKKKKKKKKKKC AEGDDPAKAAFNSLQASATEYIGYAWAMVVVIVGATIGIKLFKKFTSKAS	higher affinity for LNCaP cells compared to P100NSP-1
P100SP-2: PEG100, specific attachment to ligand 2 (conjugate) peptide 1: SECVEVFQNSCDW peptide 2: KKKKKKKKKKKKKKC AEGDDPAKAAFNSLQASATEYIGYAWAMVVVIVGATIGIKLFKKFTSKAS	higher binding affinity for cell surface PSMA than P100NSP-2
2:1 mixture of P100NSP-2 and P100NSP-1: dual PEGylated ligand combination wrapped on phage (conjugate) peptide 1: SECVEVFQNSCDW peptide 2: CALCEFLG peptide 3: KKKKKKKKKKKKKKC AEGDDPAKAAFNSLQASATEYIGYAWAMVVVIVGATIGIKLFKKFTSKAS	maximize the recognition of PSMA on LNCaP cells
P100NSP-P4-2+P100NSP-P4-1: dual PEGylated ligand combination with PEG4 linker, non-specific attachment, on phage (conjugate) peptide 1: SECVEVFQNSCDW peptide 2: CALCEFLG peptide 3: KKKKKKKKKKKKKKC AEGDDPAKAAFNSLQASATEYIGYAWAMVVVIVGATIGIKLFKKFTSKAS	drop in affinity; also recorded: affinity equivalent to P100NSP-P4-2
P100SP-P4-2: PEG100, specific attachment, PEG4 linker, ligand 2 (conjugate) peptide 1: SECVEVFQNSCDW peptide 2: KKKKKKKKKKKKKKC AEGDDPAKAAFNSLQASATEYIGYAWAMVVVIVGATIGIKLFKKFTSKAS	most effective PEGylated ligand for recognition of PSMA on the cell surface
P100SP-P4-2+P100SP-P4-1: dual PEGylated ligand combination with PEG4 linker, specific attachment, 2:1 ratio, on phage (conjugate) peptide 1: SECVEVFQNSCDW peptide 2: CALCEFLG peptide 3: KKKKKKKKKKKKKKC AEGDDPAKAAFNSLQASATEYIGYAWAMVVVIVGATIGIKLFKKFTSKAS	significant increase in binding affinity

Same assay, conditions: PEGylated ligands on phage wrapped with K14-Cys; listed as P100NSP-2+P100NSP-1

Molecule	relative binding affinity for cell surface PSMA on LNCaP cells
2:1 mixture of P100NSP-2 and P100NSP-1: dual PEGylated ligand combination wrapped on phage (conjugate) peptide 1: SECVEVFQNSCDW peptide 2: CALCEFLG peptide 3: KKKKKKKKKKKKKKC AEGDDPAKAAFNSLQASATEYIGYAWAMVVVIVGATIGIKLFKKFTSKAS	modest improvement
